Columns and labels:
[1] = biological target: Na+/K+ ATPase α-1 on mouse Lewis Lung LL/2 cancer cells (mouse) (UniProt Q8VDN2); test: flow cytometry, 5 µg/ml, trypsin-treated intact mouse LL/2 cells
[2] = biological target: Na+/K+ ATPase α-1 on mouse Lewis Lung LL/2 cancer cells (mouse) (UniProt Q8VDN2); test: flow cytometry, 5 µg/ml, EDTA-treated intact mouse LL/2 cells
[3] = biological target: Na+/K+ ATPase α-1 on mouse Lewis Lung LL/2 cancer cells (mouse) (UniProt Q8VDN2); test: flow cytometry, 5 µg/ml, EDTA-treated permeabilized mouse LL/2 cells

% cells stained [1]: 20.5%
% cells stained [2]: 29.9%
% cells stained [3]: 63.8%
Substance: mAb to Na+/K+ ATPase α-1 (Abcam, Cat. No. ab2826) (antibody)

Source: patent publication US20210032364A1
